{
  "source": "patent US20170015720A1",
  "about": "(published 2017)",
  "data": [
    {"target": "T1, CLDN6 (Claudin-6) peptide on HLA-A*02:01 (human)", "T1 peptide": "ALFGLLVYL", "experiment": "killing", "values": [
      {"binder": "TCRCD8-mC16#2 (TCR, V domains shown) Valpha: GDSVTQTEGQVTVSESKSLIINCTYSATSIGYPNLFWYVRYPGEGLQLLLKVITAGQKGSSRGFEATYNKEATSFHLQKASVQESDSAVYYCALNNQGKLIFGQGTKLSIKP Vbeta: EAAVTQSPRNKVAVTGGKVTLSCNQTNNHNNMYWYRQDTGHGLRLIHYSYGAGSTEKGDIPDGYKASRPSQENFSLILELATPSQTSVYFCASGGDSQNTLYFGAGTRLSVL", "binding result": "recognises"},
      {"binder": "TCRCD8-mC16#12 (TCR, V domains shown) Valpha: GEQVEQRPPHLSVREGDSAVITCTYTDPNSYYFFWYKQEPGASLQLLMKVFSSTEINEGQGFTVLLNKKDKRLSLNLTAAHPGDSAAYFCAVESSSFSKLVFGQGTSLSVVP Vbeta: NSKVIQTPRYLVKGQGQKAKMRCIPEKGHPVVFWYQQNKNNEFKFLINFQNQEVLQQIDMTEKRFSAECPSNSPCSLEIQSSEAGDSALYLCASSLTGGAQDTQYFGPGTRLLVL", "binding result": "recognises"},
      {"binder": "TCRCD8-mC16#1 (TCR, V domains shown) Valpha: AQSVTQPDARVTVSEGASLQLRCKYSYFGTPYLFWYVQYPRQGLQLLLKYYPGDPVVQGVNGFEAEFSKSNSSFHLRKASVHWSDWAVYFCAVSMSSGTYQRFGTGTKLQVVP Vbeta: DMKVTQMPRYLIKRMGENVLLECGQDMSHETMYWYRQDPGLGLQLIYISYDVDSNSEGDIPKGYRVSRKKREHFSLILDSAKTNQTSVYFCASSSQNQDTQYFGPGTRLLVL", "binding result": "recognises"},
      {"binder": "TCRCD8-mC16#18 (TCR, V domains shown) Valpha: GDSVTQTEGPVTVSESESLIINCTYSATSIAYPNLFWYVRYPGEGLQLLLKVITAGQKGSSRGFEATYNKETTSFHLQKASVQESDSAVYYCALGETGSFNKLTFGAGTRLAVCP Vbeta: NSKVIQTPRYLVKGQGQKAKMRCIPEKGHPVVFWYQQNKNNEFKFLINFQNQEVLQQIDMTEKRFSAECPSNSPCSLEIQSSEAGDSALYLCASSLGIYEQYFGPGTRLTVL", "binding result": "recognises"},
      {"binder": "TCRCD8-mC16#14 (TCR, V domains shown) Valpha: GDQVEQSPSALSLHEGTGSALRCNFTTTMRAVQWFRKNSRGSLINLFYLASGTKENGRLKSAFDSKERYSTLHIRDAQLEDSGTYFCAAEGGGNYKPTFGKGTSLVVHP Vbeta: AQTIHQWPVAEIKAVGSPLSLGCTIKGKSSPNLYWYWQATGGTLQQLFYSITVGQVESVVQLNLSASRPKDDQFILSTEKLLLSHSGFYLCAWSPPINTEVFFGKGTRLTVV", "binding result": "recognises"},
      {"binder": "TCRCD8-mC16#8 (TCR, V domains shown) Valpha: AQKVTQTQTSISVVEKTTVTMDCVYETRDSSYFLFWYKQTASGEIVFLIRQDSYKKENATVGHYSLNFQKPKSSIGLIITATQIEDSAVYFCAMREAANSGTYQRFGTGTKLQVVP Vbeta: DPKIIQKPKYLVAVTGSEKILICEQYLGHNAMYWYRQSAKKPLEFMFSYSYQKLMDNQTASSRFQPQSSKKNHLDLQITALKPDDSATYFCASSQQNSGNTLYFGEGSRLIVV", "binding result": "recognises"}
    ]},
    {"target": "T2, CLDN6 (Claudin-6) peptide on HLA-A*02:01 (human)", "T2 peptide": "QILGVVLTL", "experiment": "cytokine release", "values": [
      {"binder": "TCRCD8-mC16#7 (TCR, V domains shown) Valpha: GDSVTQTEGQVALSEEDFLTIHCNYSASGYPALFWYVQYPGEGPQFLFRASRDKEKGSSRGFEATYDKGTTSFHLRKASVQESDSAVYYCALGNNYAQGLTFGLGTRVSVFP Vbeta: EAAVTQSPRSKVAVTGGKVTLSCHQTNNHDYMYWYRQDTGHGLRLIHYSYVADSTEKGDIPDGYKASRPSQENFSLILELASLSQTAVYFCASSTGNERLFFGHGTKLSVL", "binding result": "recognises"}
    ]}
  ]
}
